{
  "source": "paper PMC6175910",
  "binders": {"B1": {"name": "Usfork_T10 upstream fork promoter DNA (dsDNA)", "DNA 1": "GCTTGACAAAAGTGTTAAATTGTGCTATACT", "DNA 2": "AGCACAATTTAACACTTTTGTCAAGC"}},
  "key": {"[1]": {"molecular_target": "Msm RbpA/sigmaA RNAP holoenzyme (wild type) (Mycobacterium smegmatis (strain MGM6029), UniProt A0QSL8;P60281;A0QS66;A0QWT1;A0QW02;A0QZ11 1-350;1-1169;1-1317;1-107;1-466;1-114)", "assay": "X-ray crystallography (3.05 A); Rif soaked in; Footprinting: 10 mM Tris-HCl pH 8, 10 mM K-glutamate, 5 mM MgCl2, 0.1 mM DTT, 15 ug/mL BSA, 37 C, 400 nM RNAP; crystals: 0.1 M Bis-Tris pH 6.0, 0.2 M LiSO4, 16% PEG 3350, 2.5% ethylene glycol, 22 C", "conditions": "protein: recombinant; tags: beta' C-terminal ppx-His10; chain copies: 2;1;1;1;1;1; 3' overhang 5 nt on strand 1 (upstream fork), other end blunt"}, "[2]": {"molecular_target": "Msm RbpA/sigmaA RNAP holoenzyme, beta S447L (Mycobacterium smegmatis (strain MGM6029), UniProt A0QSL8;P60281;A0QS66;A0QWT1;A0QW02;A0QZ11 1-350;1-1169;1-1317;1-107;1-466;1-114, S447L)", "assay": "X-ray crystallography (3.45 A); Kang A soaked in; Footprinting: 10 mM Tris-HCl pH 8, 10 mM K-glutamate, 5 mM MgCl2, 0.1 mM DTT, 15 ug/mL BSA, 37 C, 400 nM RNAP; crystals: 0.1 M Bis-Tris pH 6.0, 0.2 M LiSO4, 16% PEG 3350, 2.5% ethylene glycol, 22 C", "conditions": "protein: recombinant; tags: beta' C-terminal ppx-His10; chain copies: 2;1;1;1;1;1"}},
  "data": [
    {"binder": "B1", "values": [
      {"measurement": "binding result", "setting": "[1]", "value": "binds"},
      {"measurement": "binding result", "setting": "[2]", "value": "binds"}
    ]}
  ]
}
